Assay [1] can be described thus: Yeast two-hybrid ligand dose response assay (growth, OD600) of hERα LBD constructs toward DHB. The assay is classed as cell-based. Conditions: in yeast; DHB vs E2. How it is done:
Phenotypic screening of library variants was carried out based on a yeast two-hybrid system employing two constructs, the hERα LBD construct fused to the DNA binding domain of the yeast Gal4 transactivator, and the common mammalian transcriptional coactivator steroid receptor coactivator-1 (SRC-1) fused to the yeast Gal4 transcriptional activation domain. The hERα-SRC-1 interaction, which is elemental in the role of hERα as a transcriptional activator, is strengthened by the binding of agonist ligands to hERα. This system couples the strength of ligand-receptor interaction within host yeast cells to their growth on media lacking histidine and can be applied in either a selection or screening mode (Chen, et al. (2004) supra).
The plasmids from promising mutants based on this ligand response assay were isolated and re-transformed into fresh yeast cells, and the ligand response assay was carried out again to eliminate possible false-positives.
Plasmids, Strains, Reagents and Growth Media. […]
Ligand Dose Response Assay. […] These microtiter plates were incubated at 30° C. for 24 hours, after which cultures were mixed by pipetting, and OD600 readings were taken using a SPECTRAMAX® 340PC plate reader (Molecular Devices, Sunnyvale, Calif.).

Assay [2] is described as follows: Mammalian cell transactivation (luciferase) of full-length hERα constructs in HEC-1 cells toward DHB. The assay is classed as cell-based, human. The protocol:
Mammalian cell transactivation profiles for the wild-type hERα and the two best mutants, 4-S and 5-E, were carried out in estrogen receptor-negative human endometrial cancer (HEC-1) cells after cloning the hERα LBD from the chimeric yeast two-hybrid construct into the full-length estrogen receptor construct.
Mammalian Transfection and Luciferase Assay. Methods used for cell culture, transfection, and performance of luciferase assay are known in the art (Muthyala, et al. (2003) J. Med. Chem. 46:1589-1602).

B1: mutant 5-E: hERα mutant: Ala350Met, Leu346Ile, Met388Gln, Gly521Ser, Tyr526Asp, Phe461Leu, Val560Met (protein, UniProt P03372 1-595, looked up, variant A350M L346I M388Q G521S Y526D F461L V560M)
Estrogen receptor: MTMTLHTKASGMALLHQIQGNELEPLNRPQLKIPLERPLGEVYLDSSKPAVYNYPEGAAYEFNAAAAANAQVYGQTGLPYGPGSEAAAFGSNGLGGFPPLNSVSPSPLMLLHPPPQLSPFLQPHGQQVPYYLENEPSGYTVREAGPPAFYRPNSDNRRQGGRERLASTNDKGSMAMESAKETRYCAVCNDYASGYHYGVWSCEGCKAFFKRSIQGHNDYMCPATNQCTIDKNRRKSCQACRLRKCYEVGMMKGGIRKDRRGGRMLKHKRQRDDGEGRGEVGSAGDMRAANLWPSPLMIKRSKKNSLALSLTADQMVSALLDAEPPILYSEYDPTRPFSEASMMGLITNLMDRELVHMINWAKRVPGFVDLTLHDQVHLLECAWLEILQIGLVWRSMEHPGKLLFAPNLLLDRNQGKCVEGMVEIFDMLLATSSRFRMMNLQGEEFVCLKSIILLNSGVYTLLSSTLKSLEEKDHIHRVLDKITDTLIHLMAKAGLTLQQQHQRLAQLLLILSHIRHMSNKSMEHLDSMKCKNVVPLYDLLLEMLDAHRLHAPTSRGGASMEETDQSHLATAGSTSSHSLQKYYITGEAEGFPATV
Take B1: the “selectivity enhancement relative to the fourth round mutant (4-S)” value is on record as “no selectivity enhancement” in assay [1] and “no selectivity enhancement” in assay [2] (in mammalian cells, DHB vs E2). The Selectivity entry in assay [2] (HEC-1 cells, EC50 of E2 divided by EC50 of DHB) was “≧2.6 × 10^4”. The “Fold Improvement” value in assay [2] (HEC-1 cells, selectivity DHB vs E2 relative to wild-type hERα) is “≧1.4 × 10^8”.

Source of the values: US20060199250A1, “Method for generating a mutant protein which efficiently binds a target molecule” (priority 2005, published 2006).
